Consider eleven molecules from US20250026850A1 (TRISHULA THERAPEUTICS, published 2025).

The labels stand for the following.
B1: 27549 (antibody, V domains shown)
VH: QVQLVESGGGVVQPGRSLRLSCAASGFTFSSYGMNWVRQAPGKGLEWVAVIWYDGSNKYYADSVKGRFTISRDNSKNTLYLQMNSLRAEDTAVYYCARDLGGYSYGEPYYYYYGMDVWGQGTTVTVSS
VL: EIVLTQSPGTLSLSPGERATLSCRASQSVSSDYLAWYQQKPGQAPRLLIYGASSRATGIPDRFSGSGSGTDFTLTISRLEPEDFAVYYCQQAHSSPYTFGGGTKVEIKR
B2: 27535 (antibody, V domains shown)
VH: QVQLVQSGAEVKKPGSSVKVSCKASGGTFSSYAISWVRQAPGQGLEWMGGIIPIFGTANYAQKFQGRVTITADESTSTAYMELSSLRSEDTAVYYCARDTPRWRYHYFDYWGQGTLVTVSS
VL: EIVLTQSPATLSLSPGERATLSCRASQSVSSYLAWYQQKPGQAPRLLIYDASKRATGIPARFSGSGSGTDFTLTISSLEPEDFAVYYCQQVLNYPLTFGGGTKVEIKR
B3: 27579 (antibody, V domains shown)
VH: QVQLVQSGAEVKEPGASVKVSCKAPGYTFTSYYMHWVRQAPGQGLEWMGVINPSGGSTSYAQKFQGRVTMTRDTSTSTVYMELSSLRSEDTAVYYCARGKREGGTEYLRHWGQGTLVTVSS
VL: EIVLTQSPGTLSLSPGERATLSCRASQSVSSSYLAWYQQKPGQAPRLLIYGASSRATGIPDRFSGSGSGTDFTLTISRLEPEDFAVYYCQQYHSYITFGGGTKVEIK
B4: 31418 (antibody, V domains shown)
VH: B3 VH with E13K, P25S, T30K, Y33E, V50R, S59W
VL: EIVLTQSPGTLSLSPGERATLSCRASQSVSSSYLAWYQQKPGQAPRLLIYGASSRATGIPDRFSGSGSGTDFTLTISRLEPEDFAVYYCQQYYFYITFGGGTKVEIKR
B5: 31414 (antibody, human IgG4 S228P, kappa, V domains shown)
VH: B3 VH with E13K, P25S, T30K, Y33E, V50R, G55V, S59W, H110N
VL: B4 VL with Y93H, F94S
B6: 31430 (antibody, V domains shown)
VH: B3 VH with E13K, P25S, T30K, Y33E, V50R, S59W
VL: B4 VL with R24E, S31Y, T57N, Y93H, F94S, Y95A, I96L
B7: 31415 (antibody, V domains shown)
VH: B3 VH with E13K, P25S, Y33Q, V50R, S59W, H110S
VL: B4 VL with Y93H, F94S
B8: 31431 (antibody, V domains shown)
VH: B3 VH with E13K, P25S, Y33Q, V50R, S59W
VL: B3 VL with S30A, S54N, A56H, S94G, Y95G
B9: 31891 (antibody, V domains shown)
VH: B3 VH with E13K, P25S, T28I, T30K, Y33E, V50R, G55V, S59W, H110V
VL: B4 VL with G51Y, T57Y, Y93H, F94N, Y95A
B10: 29872 (antibody, V domains shown)
VH: B3 VH with E13K, P25S, T30K, Y33E, V50R, G55V, S59W
VL: B3 VL
B11: 31429 (antibody, V domains shown)
VH: B3 VH with E13K, P25S, T30V, Y33F, V50S, S54R
VL: B3 VL with S28Y, G51Y, S54N, Y95G

Numbering of substitutions follows the chain as printed.

The first test concerns the target T1, cynomolgus macaque (Macaca fascicularis) CD39 on cells (cynomolgus macaque (Macaca fascicularis), UniProt P49961 7-510 (human entry)).
T1 construct: CHO cells engineered to express cyno CD39, or primary cyno B cells and monocytes; also called cyno CD39; cCD39
T1 chain: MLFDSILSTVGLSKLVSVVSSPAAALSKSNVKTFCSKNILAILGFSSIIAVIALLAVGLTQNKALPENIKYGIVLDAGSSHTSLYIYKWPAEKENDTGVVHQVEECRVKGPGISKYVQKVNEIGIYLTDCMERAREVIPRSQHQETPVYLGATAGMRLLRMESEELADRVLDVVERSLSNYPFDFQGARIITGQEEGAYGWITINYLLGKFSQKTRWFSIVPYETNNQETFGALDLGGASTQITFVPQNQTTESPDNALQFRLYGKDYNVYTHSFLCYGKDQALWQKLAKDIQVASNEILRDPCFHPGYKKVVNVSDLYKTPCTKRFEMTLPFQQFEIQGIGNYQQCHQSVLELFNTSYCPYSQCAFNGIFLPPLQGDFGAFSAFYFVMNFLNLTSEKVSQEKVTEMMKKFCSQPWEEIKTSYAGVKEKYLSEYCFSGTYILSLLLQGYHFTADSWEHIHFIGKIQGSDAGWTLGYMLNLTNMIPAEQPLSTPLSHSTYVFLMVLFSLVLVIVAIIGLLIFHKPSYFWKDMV
In words: flow cytometry, 100 nM IgG, cCD39-CHO cells; MFI ratio to parental CHO. The procedure:
(§1) 100 nanomolar IgGs (each antibody is indicated as a unique clone number in the FIG.) were incubated at […] 30 minutes on ice in phosphate buffered saline (PBS) with parental CHO cells or CHO cells engineered to express either human or cynomolgus macaque (Macaca fascicularis) CD39 (CHO CD39 cells). Cells were then washed with ice cold PBS and incubated with a fluorescently labeled goat-anti-human IgG for 20 minutes on ice. Cells were washed and resuspended in ice cold PBS prior to analysis by flow cytrometry.
Take B1: the “Cell Binding (FOB)” value amounted to 566 FOB.

For B2, the “Cell Binding (FOB)” value was found to be 738 FOB.

Turning to B3, the “Cell Binding (FOB)” value came to 2670 FOB.

Consider B4, for which the “Cell Binding (FOB)” value was 3180 FOB.

For B5, the “Cell Binding (FOB)” value was found to be 3570 FOB.

As to B6, the “Cell Binding (FOB)” value worked out at 3570 FOB.

As to B7, the “Cell Binding (FOB)” value came to 3360 FOB.

Turning to B8, the “Cell Binding (FOB)” value stood at 3530 FOB.

For the molecule B9, the “Cell Binding (FOB)” value came out at 4650 FOB.

Consider B10, for which the “Cell Binding (FOB)” value worked out at 4190 FOB.

On to B11, for which the “Cell Binding (FOB)” value stood at 3800 FOB.

The target in a further test is T2, human CD39 on cells (human, UniProt P49961 1-510).
T2 construct: One molecule for all cells that carry human CD39; the cell is named under assay; also called hCD39; cellular CD39
T2 sequence: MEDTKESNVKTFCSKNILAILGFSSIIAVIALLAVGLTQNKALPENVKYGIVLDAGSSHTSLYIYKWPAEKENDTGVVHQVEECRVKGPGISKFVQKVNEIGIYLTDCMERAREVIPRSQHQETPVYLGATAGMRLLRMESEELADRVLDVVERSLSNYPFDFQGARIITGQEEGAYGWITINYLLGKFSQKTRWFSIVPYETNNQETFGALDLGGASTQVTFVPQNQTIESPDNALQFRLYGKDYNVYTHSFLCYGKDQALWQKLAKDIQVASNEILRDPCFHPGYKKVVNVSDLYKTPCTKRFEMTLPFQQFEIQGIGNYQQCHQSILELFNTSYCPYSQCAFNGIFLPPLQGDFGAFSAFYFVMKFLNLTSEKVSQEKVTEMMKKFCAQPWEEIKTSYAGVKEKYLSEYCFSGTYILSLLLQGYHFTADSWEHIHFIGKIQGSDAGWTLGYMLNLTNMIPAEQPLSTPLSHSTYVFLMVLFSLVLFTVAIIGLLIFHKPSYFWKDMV
The experiment in a line: flow cytometry, 100 nM IgG, hCD39-CHO cells; MFI ratio to parental CHO. The procedure: as §1
With B1, the “Cell Binding (FOB)” value came to 822 FOB.

For B2, the “Cell Binding (FOB)” value came out at 301 FOB.

In the case of B3, the “Cell Binding (FOB)” value came out at 1950 FOB.

For the molecule B4, the “Cell Binding (FOB)” value is 1080 FOB.

On to B5, for which the “Cell Binding (FOB)” value was 1240 FOB.

On to B6, for which the “Cell Binding (FOB)” value came to 1220 FOB.

Consider B7, for which the “Cell Binding (FOB)” value is 1170 FOB.

In the case of B8, the “Cell Binding (FOB)” value came to 1240 FOB.

In the case of B9, the “Cell Binding (FOB)” value was determined as 1030 FOB.

As for B10, the “Cell Binding (FOB)” value worked out at 1450 FOB.

Take B11: the “Cell Binding (FOB)” value amounted to 1290 FOB.
